For 23 sequences, Kd results are on record in the Immune Epitope Database (IEDB).

Targets include HLA-A*68:01; HLA-A*33:01; HLA-A*31:01; HLA-A*11:01; HLA-A*03:01.
Holding throughout (assay): IEDB peptide-MHC binding, purified MHC/competitive/radioactivity; filed as Kd, often an IC50 or EC50 that approximates it; ≥ and ≤ were set here for values at or beyond the usual limits of such assays
[1] abbreviates: source organism: Vaccinia virus WR.
Where [2] appears, read: source organism: Lymphocytic choriomeningitis virus (strain Armstrong).
[3] abbreviates: source organism: SARS coronavirus Tor2.

On to MLIFNVKSK, for which the Kd (commonly the concentration at which binding is half-saturated) with HLA-A*68:01 (setting [1]) is 0.841 nM; with HLA-A*33:01 (setting [1]), ≥ 45800 nM; with HLA-A*31:01 (setting [1]), ≥ 21100 nM; in the assay with HLA-A*11:01 (setting [1]), 491 nM; with HLA-A*03:01 (setting [1]), 228 nM.
On the same counts, the results for NSEYIESKAK are 4190 nM, ≥ 30600 nM, ≥ 34200 nM, 1960 nM and 5890 nM.
The matching figures for RLNNPVILSK: 4490 nM, ≥ 54900 nM, 1550 nM, 11.9 nM and 11.7 nM.
Take RCHDHYLCR: the Kd with HLA-A*68:01 (setting [2]) is ≥ 10000 nM; with HLA-A*33:01 (setting [2]), ≥ 35600 nM; in the assay with HLA-A*31:01 (setting [2]), 907 nM; in the assay with HLA-A*11:01 (setting [2]), ≥ 25700 nM; with HLA-A*03:01 (setting [2]), ≥ 22300 nM.
Turning to QIFNEDTSYY, the equilibrium dissociation constant (Kd) in the assay with HLA-A*68:01 (setting [1]) is 11.7 nM; with HLA-A*33:01 (setting [1]), ≥ 70000 nM; with HLA-A*31:01 (setting [1]), ≥ 35700 nM; with HLA-A*11:01 (setting [1]), 725 nM; in the assay with HLA-A*03:01 (setting [1]), 1420 nM.
On the same counts, the results for TLISSDGAR are 5.13 nM, 198 nM, 80.3 nM, 1400 nM and 4090 nM.
On the same counts, the results for RMLFTSTNDK are 35.6 nM, 15100 nM, 112 nM, 1.54 nM and 3.92 nM.
The matching figures for GLILFVLALY: 457 nM, ≥ 26800 nM, ≥ 43900 nM, 7250 nM and ≥ 22000 nM.
With QQQGQTVTKK, the Kd is 8240 nM with HLA-A*68:01 (setting [3]); ≥ 70000 nM in the assay with HLA-A*33:01 (setting [3]); 13700 nM in the assay with HLA-A*31:01 (setting [3]); 407 nM with HLA-A*11:01 (setting [3]); 6440 nM in the assay with HLA-A*03:01 (setting [3]).
Take DLKWARFPK: the Kd amounted to 51.5 nM in the assay with HLA-A*68:01 (setting [3]); 20 nM with HLA-A*33:01 (setting [3]); 391 nM with HLA-A*31:01 (setting [3]); 714 nM in the assay with HLA-A*11:01 (setting [3]); 5640 nM with HLA-A*03:01 (setting [3]).
For LACTDPSER, the Kd with HLA-A*68:01 (setting [1]) was 173 nM; with HLA-A*33:01 (setting [1]), 2310 nM; with HLA-A*31:01 (setting [1]), 572 nM; with HLA-A*11:01 (setting [1]), 19900 nM; in the assay with HLA-A*03:01 (setting [1]), ≥ 55100 nM.
On the same counts, the results for RVAVNKSNK are 147 nM, ≥ 52000 nM, 57.7 nM, 11.5 nM and 6.83 nM.
As to DKYGWLCKMH, the Kd in the assay with HLA-A*68:01 (setting [2]) was ≥ 70100 nM; with HLA-A*33:01 (setting [2]), ≥ 70000 nM; with HLA-A*31:01 (setting [2]) it was ≥ 59200 nM; in the assay with HLA-A*11:01 (setting [2]), ≥ 69700 nM; with HLA-A*03:01 (setting [2]), ≥ 70000 nM.
For the sequence DAYNIADAAR, the Kd was 1.28 nM with HLA-A*68:01 (setting [1]); 0.812 nM with HLA-A*33:01 (setting [1]); 19.2 nM with HLA-A*31:01 (setting [1]); 613 nM in the assay with HLA-A*11:01 (setting [1]); 16000 nM with HLA-A*03:01 (setting [1]).
On the same counts, the results for SSFIVPEFAK are 2.23 nM, 9270 nM, 9400 nM, 0.534 nM and 37.4 nM.
For PLHILASNK, the Kd with HLA-A*68:01 (setting [1]) was 11400 nM; with HLA-A*33:01 (setting [1]), ≥ 77700 nM; with HLA-A*31:01 (setting [1]), 12500 nM; with HLA-A*11:01 (setting [1]), 6420 nM; in the assay with HLA-A*03:01 (setting [1]) it was 161 nM.
As to LLSIVVDINK, the dissociation constant (Kd) with HLA-A*68:01 (setting [1]) was found to be 110 nM; with HLA-A*33:01 (setting [1]), 10500 nM; with HLA-A*31:01 (setting [1]), 1090 nM; with HLA-A*11:01 (setting [1]), 35.9 nM; with HLA-A*03:01 (setting [1]), 485 nM.
On the same counts, the results for TSEKYSKGY are ≥ 77700 nM, ≥ 77700 nM, ≥ 77900 nM, ≥ 77900 nM and ≥ 78000 nM.
On the same counts, the results for PISASDMQK are 8850 nM, 7290 nM, 282 nM, 163 nM and 3230 nM.
On the same counts, the results for SIRPRVTKQY are 8010 nM, ≥ 70000 nM, 6270 nM, 9160 nM and 884 nM.
VVENPTIQK: the Kd with HLA-A*68:01 (setting [3]) was 407 nM; in the assay with HLA-A*33:01 (setting [3]), ≥ 64100 nM; with HLA-A*31:01 (setting [3]), 18700 nM; with HLA-A*11:01 (setting [3]), 7.63 nM; with HLA-A*03:01 (setting [3]) it was 328 nM.
For IINFTISMR, the Kd worked out at 3.79 nM in the assay with HLA-A*68:01 (setting [1]); 98.1 nM with HLA-A*33:01 (setting [1]); 2.23 nM in the assay with HLA-A*31:01 (setting [1]); 49.2 nM with HLA-A*11:01 (setting [1]); 41.3 nM with HLA-A*03:01 (setting [1]).
The matching figures for YSSMTSDSK: 2.38 nM, ≥ 21400 nM, 4860 nM, 10.5 nM and 1980 nM.
